Laboratory results from patent publication US20060067886A1, “Gastrin receptor-avid peptide conjugates” (priority 1997, published 2006).

Legend:
[1] = test system: PC-3 human tumor xenografts; experiment: in vivo
Procedure: (§1) In vivo pharmacokinetic studies in human tumor bearing SCID mice. […] The xenograft models were produced by bilateral flank inoculation of 5×10^6 cells (PC-3 or MDA-MB-231 cells) per site. Four to six weeks post inoculation, palpable tumors were observed. At this point, the mice were injected with 4 μCi of the complex in […] of isotonic saline via the tail vein. The mice were euthanized and tissues and organs were excised from the animals at selected times post-injection (p.i.), including 15 minutes, 30 minutes, 1 hour, 4 hours, 24 hours, 48 hours, and 72 hours p.i. Subsequently, the tissues and organs were weighed and counted in a NaI well counter and the percent injected dose (% ID) and % ID/g of each organ or tissue calculated.
(§2) The mice were injected with 4 μCi of the complex in 100 μL of isotonic saline via the tail vein. The mice were euthanized by cervical dislocation. Tissues and organs were excised from the animals following at 1 hour, 4 hour, and 24 hours post-injection (p.i.). Subsequently, the tissues and organs were weighed and counted in a NaI well counter and the percent injected dose (% ID) and % ID/g of each organ or tissue calculated.

in vivo = settings: SCID, mouse, in vivo, iv, 4 uCi, total radioactivity, Avg % ID, Heart, 24 hrs
Procedure: as §1, §2

[2] = target: T1, GRP receptors on Swiss 3T3 cells (Mus musculus, UniProt P21729); experiment: Competitive cell binding vs 125I-Tyr4-BBN, Swiss 3T3 cells
T1 construct: endogenous in cells; host or cells: Swiss 3T3 mouse fibroblasts (whole cells)
Procedure: The binding affinities of the synthetic BBN derivatives were assessed for GRP receptors on Swiss 3T3 cells and, in some cases, on a variety of human cancer cell lines, that express GRP receptors. […] The cell binding assay methods used to measure the IC50's is standard and used techniques previously reported [Jensen et al., 1993; Cai et al., 1994; Cai et al., 1992]. The methods used for determining IC50's for all GRP receptor binding compounds on all cell lines was similar. The specific method used to measure IC50's on Swiss 3T3 cells is briefly described as follows:
(§3) Swiss 3T3 mouse fibroblasts are grown to confluence in 48 well microtiter plates. […] The growth media was removed, the cells were washed twice with incubation media, and incubation media was returned to the cells. ^125I-Tyr4-BBN (0.01 uCi) was added to each well in the presence of increasing concentrations of the appropriate competitive peptide. Typical concentrations of displacing peptide ranged from 10-12 to 10-5 moles of displacing ligand per well. The cells were incubated at 37° C. for forty minutes in a 95% […]/5% CO2 humidified environment. At forty minutes post initiation of the incubation, the medium was discarded, and the cells were washed twice with cold incubation media. The cells were harvested from the wells following incubation in a trypsin/EDTA solution for five minutes at 37° C. Subsequently, the radioactivity, per well, was determined and the maximum % total uptake of the radiolabeled peptide was determined and normalized to 100%.
The binding affinities of the synthetic BBN derivatives were assessed for GRP receptors on Swiss 3T3 cells, PC-3 cells and CF PAC-1 cells. The IC50's of each of derivative were determined relative to (i.e., in competition with) ^125I-Tyr^4-BBN. The cell binding assay methods used to measure the IC50's is standard and was used by techniques previously reported [Jensen et al., 1993; Cai et al., 1992; Cai et al., 1994]. The methods used for determining IC50's with all BBN analogue binding to GRP receptors present on all three cell lines were similar. The specific method used to measure IC50's on Swiss 3T3 cells, is briefly described as follows:
as §3, with “microliter” for “microtiter”, “^125I-Tyr^4-BBN” for “^125I-Tyr4-BBN”, “μCi)” for “uCi)”, “10^−12” for “10-12”, “10^−5” for “10-5”, “100%. A similar procedure was used in performing cell binding assays with both the PC-3 and CFa-PAC-1 human cancer cell lines.” for “100%.”

T1 sequence (P21729 whole entry): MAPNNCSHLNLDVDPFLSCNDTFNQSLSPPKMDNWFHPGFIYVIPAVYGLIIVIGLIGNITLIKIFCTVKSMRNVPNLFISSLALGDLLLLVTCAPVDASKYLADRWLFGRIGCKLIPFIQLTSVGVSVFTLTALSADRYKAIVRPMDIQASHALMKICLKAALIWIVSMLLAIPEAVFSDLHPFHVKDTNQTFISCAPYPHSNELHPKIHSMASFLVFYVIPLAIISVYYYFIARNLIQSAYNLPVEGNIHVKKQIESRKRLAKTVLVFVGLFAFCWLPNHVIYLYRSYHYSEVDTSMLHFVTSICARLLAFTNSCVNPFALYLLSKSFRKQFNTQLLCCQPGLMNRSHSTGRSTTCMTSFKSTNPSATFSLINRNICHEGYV

CSCC[C@H](NC(=O)[C@H](CC(C)C)NC(=O)[C@H](Cc1cnc[nH]1)NC(=O)CNC(=O)[C@@H](NC(=O)[C@H](C)NC(=O)[C@H](Cc1c[nH]c2ccccc12)NC(=O)[C@H](CCC(N)=O)NC(=O)CCCCCCCNC(=O)CN1CCN(CC(=O)O)CCN(CC(=O)O)CCN(CC(=O)O)CC1)C(C)C)C(N)=O [90Y-DOTA-8-Aoc-BBN[7-14]NH2] [metal not drawn]
Avg % ID, Blood ([1]; 1 hr): 0.56 ± 0.20 % ID | Avg % ID, Carcass ([1]; 1 hr): 0.62 ± 0.44 % ID | Avg % ID, Kidney ([1]; 1 hr): 1.22 ± 0.46 % ID | Avg % ID, L. Intestine ([1]; 1 hr): 2.44 ± 0.66 % ID | Avg % ID, Lung ([1]; 1 hr): 0.06 ± 0.03 % ID | Avg % ID, Muscle ([1]; 1 hr): 0.02 ± 0.02 % ID | Avg % ID, Pancreas ([1]; 1 hr): 5.70 ± 1.60 % ID | Avg % ID, S. Intestine ([1]; 1 hr): 4.65 ± 0.98 % ID | Avg % ID, Spleen ([1]; 1 hr): 0.07 ± 0.04 % ID | Avg % ID, Urine ([1]; 1 hr): 57.73 ± 14.52 % ID | Avg % ID/gm, Blood ([1]; 1 hr): 0.34 ± 0.12 % ID/gm | Avg % ID/gm, Heart ([1]; 1 hr): 0.10 ± 0.11 % ID/gm | Avg % ID/gm, Lung ([1]; 1 hr): 0.22 ± 0.12 % ID/gm | Avg % ID/gm, Muscle ([1]; 1 hr): 0.15 ± 0.19 % ID/gm | Avg % ID/gm, Pancreas ([1]; 1 hr): 24.73 ± 4.97 % ID/gm | Avg % ID/gm, Spleen ([1]; 1 hr): 1.09 ± 0.67 % ID/gm | Avg % ID/gm, Stomach ([1]; 1 hr): 1.34 ± 0.64 % ID/gm | Avg % ID/gm, Tumor ([1]; 1 hr): 2.95±0.99 % ID/gm | Avg % ID, Blood ([1]; 4 hrs): 0.09 ± 0.13 % ID | Avg % ID, Carcass ([1]; 4 hrs): 0.14 ± 0.11 % ID | Avg % ID, Kidney ([1]; 4 hrs): 0.54 ± 0.25 % ID | Avg % ID, L. Intestine ([1]; 4 hrs): 3.33 ± 0.71 % ID | Avg % ID, Liver ([1]; 4 hrs): 0.19 ± 0.13 % ID | Avg % ID, Pancreas ([1]; 4 hrs): 3.42 ± 0.82 % ID | Avg % ID, S. Intestine ([1]; 4 hrs): 2.06 ± 1.27 % ID | Avg % ID, Spleen ([1]; 4 hrs): 0.02 ± 0.03 % ID | Avg % ID, Stomach ([1]; 4 hrs): 0.18 ± 0.06 % ID | Avg % ID, Tumor ([1]; 4 hrs): 0.34 ± 0.22 % ID | Avg % ID, Urine ([1]; 4 hrs): 67.02 ± 16.74 % ID | Avg % ID/gm, Blood ([1]; 4 hrs): 0.05 ± 0.07 % ID/gm | Avg % ID/gm, Heart ([1]; 4 hrs): 0.10 ± 0.14 % ID/gm | Avg % ID/gm, Kidney ([1]; 4 hrs): 1.68 ± 0.76 % ID/gm | Avg % ID/gm, L. Intestine ([1]; 4 hrs): 5.17 ± 1.85 % ID/gm | Avg % ID/gm, Liver ([1]; 4 hrs): 0.18 ± 0.12 % ID/gm | Avg % ID/gm, Lung ([1]; 4 hrs): 0.07 ± 0.07 % ID/gm | Avg % ID/gm, Muscle ([1]; 4 hrs): 0.07 ± 0.13 % ID/gm | Avg % ID/gm, Pancreas ([1]; 4 hrs): 14.02 ± 4.89 % ID/gm | Avg % ID/gm, S. Intestine ([1]; 4 hrs): 1.66 ± 0.91 % ID/gm | Avg % ID/gm, Stomach ([1]; 4 hrs): 0.55 ± 0.16 % ID/gm | Avg % ID/gm, Tumor ([1]; 4 hrs): 1.98±0.66 % ID/gm | Avg % ID, Blood ([1]; 24 hrs): 0.12 ± 0.14 % ID | Avg % ID, Feces ([1]; 24 hrs): 10.71 ± 8.29 % ID | Avg % ID, Heart ([1]; 24 hrs): 0.00 ± 0.00 % ID | Avg % ID, Kidney ([1]; 24 hrs): 0.17 ± 0.09 % ID | Avg % ID, L. Intestine ([1]; 24 hrs): 1.11 ± 0.75 % ID | Avg % ID, Liver ([1]; 24 hrs): 0.10 ± 0.03 % ID | Avg % ID, Lung ([1]; 24 hrs): 0.00 ± 0.00 % ID | Avg % ID, Muscle ([1]; 24 hrs): 0.00 ± 0.01 % ID | Avg % ID, S. Intestine ([1]; 24 hrs): 0.51 ± 0.20 % ID | Avg % ID, Tumor ([1]; 24 hrs): 0.16 ± 0.09 % ID | Avg % ID, Urine ([1]; 24 hrs): 67.62 ± 17.26 % ID | Avg % ID/gm, Blood ([1]; 24 hrs): 0.07 ± 0.08 % ID/gm | Avg % ID/gm, Heart ([1]; 24 hrs): 0.00 ± 0.00 % ID/gm | Avg % ID/gm, Kidney ([1]; 24 hrs): 0.51 ± 0.25 % ID/gm | Avg % ID/gm, L. Intestine ([1]; 24 hrs): 1.27 ± 0.92 % ID/gm | Avg % ID/gm, Liver ([1]; 24 hrs): 0.08 ± 0.03 % ID/gm | Avg % ID/gm, Lung ([1]; 24 hrs): 0.01 ± 0.02 % ID/gm | Avg % ID/gm, Muscle ([1]; 24 hrs): 0.02 ± 0.03 % ID/gm | Avg % ID/gm, Pancreas ([1]; 24 hrs): 1.80 ± 0.57 % ID/gm | Avg % ID/gm, Spleen ([1]; 24 hrs): 0.11 ± 0.13 % ID/gm | Avg % ID/gm, Stomach ([1]; 24 hrs): 0.09 ± 0.07 % ID/gm | Avg % ID/gm, Tumor ([1]; 24 hrs): 1.08±0.37 % ID/gm | Avg % ID, Blood ([1]; 48 hrs): 0.10 ± 0.14 % ID | Avg % ID, Carcass ([1]; 48 hrs): 0.11 ± 0.17 % ID | Avg % ID, Heart ([1]; 48 hrs): 0.02 ± 0.02 % ID | Avg % ID, Kidney ([1]; 48 hrs): 0.10 ± 0.04 % ID | Avg % ID, Pancreas ([1]; 48 hrs): 0.15 ± 0.04 % ID | Avg % ID, S. Intestine ([1]; 48 hrs): 0.16 ± 0.06 % ID | Avg % ID, Tumor ([1]; 48 hrs): 0.11 ± 0.07 % ID | Avg % ID, Urine ([1]; 48 hrs): 76.74 ± 21.06 % ID | Avg % ID/gm, Blood ([1]; 48 hrs): 0.06 ± 0.08 % ID/gm | Avg % ID/gm, Heart ([1]; 48 hrs): 0.14 ± 0.19 % ID/gm | Avg % ID/gm, Kidney ([1]; 48 hrs): 0.29 ± 0.12 % ID/gm | Avg % ID/gm, L. Intestine ([1]; 48 hrs): 0.77 ± 0.15 % ID/gm | Avg % ID/gm, Muscle ([1]; 48 hrs): 0.07 ± 0.13 % ID/gm | Avg % ID/gm, Pancreas ([1]; 48 hrs): 0.59 ± 0.14 % ID/gm | Avg % ID/gm, S. Intestine ([1]; 48 hrs): 0.13 ± 0.04 % ID/gm | Avg % ID/gm, Spleen ([1]; 48 hrs): 0.09 ± 0.24 % ID/gm | Avg % ID/gm, Tumor ([1]; 48 hrs): 0.58 ± 0.30 % ID/gm | Avg % ID, Blood ([1]; 72 hrs): 0.11 ± 0.15 % ID | Avg % ID, Carcass ([1]; 72 hrs): 0.10 ± 0.11 % ID | Avg % ID, Kidney ([1]; 72 hrs): 0.13 ± 0.07 % ID | Avg % ID, Liver ([1]; 72 hrs): 0.08 ± 0.11 % ID | Avg % ID, Lung ([1]; 72 hrs): 0.00 ± 0.01 % ID | Avg % ID, Pancreas ([1]; 72 hrs): 0.08 ± 0.05 % ID | Avg % ID, S. Intestine ([1]; 72 hrs): 0.11 ± 0.07 % ID | Avg % ID, Spleen ([1]; 72 hrs): 0.02 ± 0.01 % ID | Avg % ID, Tumor ([1]; 72 hrs): 0.06 ± 0.06 % ID | Avg % ID, Urine ([1]; 72 hrs): 82.97 ± 25.39 % ID | Avg % ID/gm, Blood ([1]; 72 hrs): 0.06 ± 0.09 % ID/gm | Avg % ID/gm, Kidney ([1]; 72 hrs): 0.43 ± 0.29 % ID/gm | Avg % ID/gm, L. Intestine ([1]; 72 hrs): 0.47 ± 0.24 % ID/gm | Avg % ID/gm, Liver ([1]; 72 hrs): 0.08 ± 0.11 % ID/gm | Avg % ID/gm, Lung ([1]; 72 hrs): 0.02 ± 0.03 % ID/gm | Avg % ID/gm, Muscle ([1]; 72 hrs): 0.08 ± 0.19 % ID/gm | Avg % ID/gm, Pancreas ([1]; 72 hrs): 0.27 ± 0.17 % ID/gm | Avg % ID/gm, S. Intestine ([1]; 72 hrs): 0.08 ± 0.05 % ID/gm | Avg % ID/gm, Spleen ([1]; 72 hrs): 0.28 ± 0.26 % ID/gm | Avg % ID/gm, Stomach ([1]; 72 hrs): 0.07 ± 0.03 % ID/gm | Avg % ID/gm, Tumor ([1]; 72 hrs): 0.46 ± 0.48 % ID/gm

CSCC[C@H](NC(=O)[C@H](CC(C)C)NC(=O)[C@H](Cc1cnc[nH]1)NC(=O)CNC(=O)[C@@H](NC(=O)[C@H](C)NC(=O)[C@H](Cc1c[nH]c2ccccc12)NC(=O)[C@H](CCC(N)=O)NC(=O)CCCCCCCNC(=O)CN1CCN(CC(=O)O)CCN(CC(=O)O)CCN(CC(=O)O)CC1)C(C)C)C(N)=O [177Lu-DOTA-8-Aoc-BBN[7-14]NH2, metal not drawn]
tissue uptake dose at 24 h (in vivo): 0.01 %ID

CSCC[C@H](NC(=O)[C@H](CC(C)C)NC(=O)[C@H](Cc1c[nH]cn1)NC(=O)CNC(=O)[C@@H](NC(=O)[C@H](C)NC(=O)[C@H](Cc1c[nH]c2ccccc12)NC(=O)[C@H](CCC(N)=O)NC(=O)CCCCNC(=O)COC1CSCCCSCCCSCCCSC1)C(C)C)C(N)=O [BBN-37]
IC50 [2]: 1.79 ± 0.09 nM
